The results in this text go back to US20110166062A1 (INDIANA UNIVERSITY RESEARCH AND TECHNOLOGY, published 2011).

Bridges are numbered along the chain shown (N, C = ends). Where no end group is shown, it is not given here.

Experiment in all cases: cell-based or functional assay
One test deals with glucagon receptor (UniProt P47871 26-477, limits assumed).
The target in another test is T1, GIP receptor (UniProt P48546 22-466).
T1 sequence (looked up): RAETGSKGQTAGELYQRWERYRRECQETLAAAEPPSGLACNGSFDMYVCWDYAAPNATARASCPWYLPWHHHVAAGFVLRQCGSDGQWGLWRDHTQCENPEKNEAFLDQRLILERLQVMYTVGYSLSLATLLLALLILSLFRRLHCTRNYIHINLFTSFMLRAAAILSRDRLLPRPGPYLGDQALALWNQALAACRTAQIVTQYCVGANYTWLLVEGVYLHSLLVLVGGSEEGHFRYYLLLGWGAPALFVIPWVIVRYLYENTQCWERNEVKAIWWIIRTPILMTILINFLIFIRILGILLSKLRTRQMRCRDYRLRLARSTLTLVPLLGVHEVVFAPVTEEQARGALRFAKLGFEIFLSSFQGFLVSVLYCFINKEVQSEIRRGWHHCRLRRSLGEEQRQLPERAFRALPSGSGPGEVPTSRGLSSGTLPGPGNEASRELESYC

The target of a further test is GLP-1 receptor (UniProt P43220 24-463, limits assumed).

glucagon receptor, sequence (P47871 26-477 limits assumed): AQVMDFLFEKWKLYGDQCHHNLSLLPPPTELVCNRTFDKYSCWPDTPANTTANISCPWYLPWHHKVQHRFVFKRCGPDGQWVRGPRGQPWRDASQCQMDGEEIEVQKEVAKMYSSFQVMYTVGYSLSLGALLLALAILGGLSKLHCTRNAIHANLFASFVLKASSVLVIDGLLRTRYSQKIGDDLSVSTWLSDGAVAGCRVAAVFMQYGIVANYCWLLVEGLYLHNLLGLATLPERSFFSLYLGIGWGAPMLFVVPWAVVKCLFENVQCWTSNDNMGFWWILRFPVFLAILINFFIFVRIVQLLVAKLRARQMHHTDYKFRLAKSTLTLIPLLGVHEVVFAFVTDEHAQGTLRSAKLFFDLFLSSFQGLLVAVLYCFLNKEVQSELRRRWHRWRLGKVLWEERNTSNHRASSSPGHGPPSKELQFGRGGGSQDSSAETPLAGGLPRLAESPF

B1: mt-98 (peptide)
peptide: YAEGTFTSDYSIYMDEIHQKDFVNWLLAQ-NH2
modifications: lactam 16-20; N-terminus assumed
SMILES: CC[C@H](C)[C@H](NC(=O)[C@H](CO)NC(=O)[C@H](Cc1ccc(O)cc1)NC(=O)[C@H](CC(=O)O)NC(=O)[C@H](CO)NC(=O)[C@@H](NC(=O)[C@H](Cc1ccccc1)NC(=O)[C@@H](NC(=O)CNC(=O)[C@H](CCC(=O)O)NC(=O)[C@H](C)NC(=O)[C@@H](N)Cc1ccc(O)cc1)[C@@H](C)O)[C@@H](C)O)C(=O)N[C@@H](Cc1ccc(O)cc1)C(=O)N[C@@H](CCSC)C(=O)N[C@@H](CC(=O)O)C(=O)N[C@H]1CCC(=O)NCCCC[C@@H](C(=O)N[C@@H](CC(=O)O)C(=O)N[C@@H](Cc2ccccc2)C(=O)N[C@H](C(=O)N[C@@H](CC(N)=O)C(=O)N[C@@H](Cc2c[nH]c3ccccc23)C(=O)N[C@@H](CC(C)C)C(=O)N[C@@H](CC(C)C)C(=O)N[C@@H](C)C(=O)N[C@@H](CCC(N)=O)C(N)=O)C(C)C)NC(=O)[C@H](CCC(N)=O)NC(=O)[C@H](Cc2c[nH]cn2)NC(=O)[C@H]([C@@H](C)CC)NC1=O
In general, EC50 refers to the concentration at which the effect is half-maximal. In the case of B1, the concentration giving a half-maximal response (EC50) was determined as 957 nM in the test with glucagon receptor, 0.196 nM with GIP receptor and 2.82 nM with GLP-1 receptor. In addition, the relative activity in the test with glucagon receptor was 0.01%; in the test with GIP receptor, 25%; with GLP-1 receptor, 1.42%.

B2: mt-107 (peptide)
peptide: HSQGTFISDYSKYLDEIHQKEFIAWLMNT-NH2
modifications: lactam 16-20; N-terminus assumed
SMILES: CC[C@H](C)[C@H](NC(=O)[C@H](Cc1ccccc1)NC(=O)[C@H](CCC(=O)O)NC(=O)[C@@H]1CCCCNC(=O)CC[C@H](NC(=O)[C@H](CC(=O)O)NC(=O)[C@H](CC(C)C)NC(=O)[C@H](Cc2ccc(O)cc2)NC(=O)[C@H](CCCCN)NC(=O)[C@H](CO)NC(=O)[C@H](Cc2ccc(O)cc2)NC(=O)[C@H](CC(=O)O)NC(=O)[C@H](CO)NC(=O)[C@@H](NC(=O)[C@H](Cc2ccccc2)NC(=O)[C@@H](NC(=O)CNC(=O)[C@H](CCC(N)=O)NC(=O)[C@H](CO)NC(=O)[C@@H](N)Cc2c[nH]cn2)[C@@H](C)O)[C@@H](C)CC)C(=O)N[C@@H]([C@@H](C)CC)C(=O)N[C@@H](Cc2c[nH]cn2)C(=O)N[C@@H](CCC(N)=O)C(=O)N1)C(=O)N[C@@H](C)C(=O)N[C@@H](Cc1c[nH]c2ccccc12)C(=O)N[C@@H](CC(C)C)C(=O)N[C@@H](CCSC)C(=O)N[C@@H](CC(N)=O)C(=O)N[C@H](C(N)=O)[C@@H](C)O
For the molecule B2, the “EC50” value with glucagon receptor is 0.07 nM; with GIP receptor it was 3.37 nM; with GLP-1 receptor it was 24.8 nM. Further, the relative activity with glucagon receptor was 186%; with GIP receptor, 0.74%; with GLP-1 receptor, 0.16%.

B3: mt-97 (peptide)
peptide: HAEGTFTSDYSIYMDEIHQKDFVNWLLAQ-NH2
modifications: lactam 16-20; N-terminus assumed
SMILES: CC[C@H](C)[C@H](NC(=O)[C@H](CO)NC(=O)[C@H](Cc1ccc(O)cc1)NC(=O)[C@H](CC(=O)O)NC(=O)[C@H](CO)NC(=O)[C@@H](NC(=O)[C@H](Cc1ccccc1)NC(=O)[C@@H](NC(=O)CNC(=O)[C@H](CCC(=O)O)NC(=O)[C@H](C)NC(=O)[C@@H](N)Cc1c[nH]cn1)[C@@H](C)O)[C@@H](C)O)C(=O)N[C@@H](Cc1ccc(O)cc1)C(=O)N[C@@H](CCSC)C(=O)N[C@@H](CC(=O)O)C(=O)N[C@H]1CCC(=O)NCCCC[C@@H](C(=O)N[C@@H](CC(=O)O)C(=O)N[C@@H](Cc2ccccc2)C(=O)N[C@H](C(=O)N[C@@H](CC(N)=O)C(=O)N[C@@H](Cc2c[nH]c3ccccc23)C(=O)N[C@@H](CC(C)C)C(=O)N[C@@H](CC(C)C)C(=O)N[C@@H](C)C(=O)N[C@@H](CCC(N)=O)C(N)=O)C(C)C)NC(=O)[C@H](CCC(N)=O)NC(=O)[C@H](Cc2c[nH]cn2)NC(=O)[C@H]([C@@H](C)CC)NC1=O
Turning to B3, the “EC50” value with glucagon receptor was 4.08 nM; in the test with GIP receptor it was 1.75 nM; with GLP-1 receptor it was 2.36 nM. The figures for the relative activity with glucagon receptor, in the test with GIP receptor and with GLP-1 receptor were 3.19%, 2.81% and 1.27%, respectively.

B4: mt-96 (peptide)
peptide: YAEGTFISDYSIAMDEIHQKDFVNWLLAQ-NH2
modifications: lactam 16-20; N-terminus assumed
SMILES: CC[C@H](C)[C@H](NC(=O)[C@H](CO)NC(=O)[C@H](Cc1ccc(O)cc1)NC(=O)[C@H](CC(=O)O)NC(=O)[C@H](CO)NC(=O)[C@@H](NC(=O)[C@H](Cc1ccccc1)NC(=O)[C@@H](NC(=O)CNC(=O)[C@H](CCC(=O)O)NC(=O)[C@H](C)NC(=O)[C@@H](N)Cc1ccc(O)cc1)[C@@H](C)O)[C@@H](C)CC)C(=O)N[C@@H](C)C(=O)N[C@@H](CCSC)C(=O)N[C@@H](CC(=O)O)C(=O)N[C@H]1CCC(=O)NCCCC[C@@H](C(=O)N[C@@H](CC(=O)O)C(=O)N[C@@H](Cc2ccccc2)C(=O)N[C@H](C(=O)N[C@@H](CC(N)=O)C(=O)N[C@@H](Cc2c[nH]c3ccccc23)C(=O)N[C@@H](CC(C)C)C(=O)N[C@@H](CC(C)C)C(=O)N[C@@H](C)C(=O)N[C@@H](CCC(N)=O)C(N)=O)C(C)C)NC(=O)[C@H](CCC(N)=O)NC(=O)[C@H](Cc2c[nH]cn2)NC(=O)[C@H]([C@@H](C)CC)NC1=O
Regarding B4, the concentration giving a half-maximal response (EC50) with glucagon receptor was 61.7 nM; with GIP receptor it was 0.058 nM; in the test with GLP-1 receptor, 92.9 nM. The relative activity in the test with glucagon receptor was 0.29%; with GIP receptor it was 84.5%; with GLP-1 receptor, 0.04%.

B5: mt-108 (peptide)
peptide: HSQGTFISDYSKALDEIHQKEFIAWLMNT-NH2
modifications: lactam 16-20; N-terminus assumed
SMILES: CC[C@H](C)[C@H](NC(=O)[C@H](Cc1ccccc1)NC(=O)[C@H](CCC(=O)O)NC(=O)[C@@H]1CCCCNC(=O)CC[C@H](NC(=O)[C@H](CC(=O)O)NC(=O)[C@H](CC(C)C)NC(=O)[C@H](C)NC(=O)[C@H](CCCCN)NC(=O)[C@H](CO)NC(=O)[C@H](Cc2ccc(O)cc2)NC(=O)[C@H](CC(=O)O)NC(=O)[C@H](CO)NC(=O)[C@@H](NC(=O)[C@H](Cc2ccccc2)NC(=O)[C@@H](NC(=O)CNC(=O)[C@H](CCC(N)=O)NC(=O)[C@H](CO)NC(=O)[C@@H](N)Cc2c[nH]cn2)[C@@H](C)O)[C@@H](C)CC)C(=O)N[C@@H]([C@@H](C)CC)C(=O)N[C@@H](Cc2c[nH]cn2)C(=O)N[C@@H](CCC(N)=O)C(=O)N1)C(=O)N[C@@H](C)C(=O)N[C@@H](Cc1c[nH]c2ccccc12)C(=O)N[C@@H](CC(C)C)C(=O)N[C@@H](CCSC)C(=O)N[C@@H](CC(N)=O)C(=O)N[C@H](C(N)=O)[C@@H](C)O
B5: the “EC50” value with glucagon receptor was 0.19 nM; with GIP receptor, 4.78 nM; with GLP-1 receptor it was 0.32 nM. Moreover, the relative activity with glucagon receptor is 68.4%; with GIP receptor, 0.52%; in the test with GLP-1 receptor, 12.5%.

Regarding YXEGTFISDYSIAMDKIHQQDFVNWLLAQKGKKNWLKHNITQ (C-terminal amide) [mt-100], the results for the “EC50” value in the test with glucagon receptor, with GIP receptor and in the test with GLP-1 receptor were 1460 nM, 0.016 nM and 552 nM, respectively. For the same molecule, the relative activity with glucagon receptor amounted to 0.01%; with GIP receptor, 306%; with GLP-1 receptor, 0.01%.

YSQGTFTSDYSKYLDEIHQKDFVNWLLAQ-NH2 [mt-109]: the concentration giving a half-maximal response (EC50) with glucagon receptor came out at 0.13 nM; with GIP receptor, 0.658 nM; with GLP-1 receptor, 3.86 nM. Moreover, the relative activity turned out to be 76.9% with glucagon receptor, 6.99% with GIP receptor and 0.78% in the test with GLP-1 receptor.

With YAEGTFISDYSIAMDKIHQQDFVNWLLAQKGKKNWLKHNITQ-NH2 [mt-99], the “EC50” value with glucagon receptor was 23300 nM; with GIP receptor it was 0.049 nM; with GLP-1 receptor, 4550 nM. For the same molecule, the relative activity in the test with glucagon receptor was 0%; with GIP receptor it was 100%; with GLP-1 receptor it was 0%.

B6: mt-95 (peptide)
peptide: HAEGTFISDYSIAMDEIHQKDFVNWLLAQ-NH2
modifications: lactam 16-20; N-terminus assumed
SMILES: CC[C@H](C)[C@H](NC(=O)[C@H](CO)NC(=O)[C@H](Cc1ccc(O)cc1)NC(=O)[C@H](CC(=O)O)NC(=O)[C@H](CO)NC(=O)[C@@H](NC(=O)[C@H](Cc1ccccc1)NC(=O)[C@@H](NC(=O)CNC(=O)[C@H](CCC(=O)O)NC(=O)[C@H](C)NC(=O)[C@@H](N)Cc1c[nH]cn1)[C@@H](C)O)[C@@H](C)CC)C(=O)N[C@@H](C)C(=O)N[C@@H](CCSC)C(=O)N[C@@H](CC(=O)O)C(=O)N[C@H]1CCC(=O)NCCCC[C@@H](C(=O)N[C@@H](CC(=O)O)C(=O)N[C@@H](Cc2ccccc2)C(=O)N[C@H](C(=O)N[C@@H](CC(N)=O)C(=O)N[C@@H](Cc2c[nH]c3ccccc23)C(=O)N[C@@H](CC(C)C)C(=O)N[C@@H](CC(C)C)C(=O)N[C@@H](C)C(=O)N[C@@H](CCC(N)=O)C(N)=O)C(C)C)NC(=O)[C@H](CCC(N)=O)NC(=O)[C@H](Cc2c[nH]cn2)NC(=O)[C@H]([C@@H](C)CC)NC1=O
With B6, the half-maximal effective concentration (EC50) with glucagon receptor was determined as 280 nM; with GIP receptor, 0.465 nM; in the test with GLP-1 receptor it was 48.9 nM. Moreover, the relative activity in the test with glucagon receptor is 0.04%; in the test with GIP receptor, 10.5%; in the test with GLP-1 receptor, 0.08%.
